Experiments:
[1] = system: MS2 coat protein; assay: apparent KD of MS2 coat protein; designed switch direction (-1 OFF switch, 1 ON switch): 1; higher = weaker reporter binding; conditions: Eterna round: R98
Method: (§1)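 RNA-MaP: designed FMN/MS2 RNA switches (84 nt design region) are transcribed on-chip within common flanks and titrated with SNAP-549-labelled MS2 coat protein (about 1-3000 nM) in 100 mM Tris pH 7.5, 80 mM KCl, 4 mM MgCl2, without or with 200 uM FMN. Median apparent KD per design; activation ratio = KD,OFF / KD,ON.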

[2] = system: MS2 coat protein; assay: apparent KD of MS2 coat protein; higher = weaker reporter binding; conditions: Eterna round: R101
Method: as §1

| Sequence | apparent KD of MS2 coat protein ([1]; input ligand: FMN 200 uM) | apparent KD of MS2 coat protein ([1]; input ligand: none) | apparent KD of MS2 coat protein ([2]; input ligand: FMN 200 uM) | apparent KD of MS2 coat protein ([2]; input ligand: none) |
| --- | --- | --- | --- | --- |
| AGGUAGGUCACAGGAUAUCCCGUGAGCUACAUGAGGAUCACCCAUGUAUCACGACGAAAGAAGAAGGAGAAGGGUGACCCUGAU [Atqula] | 28.3 nM | 186 nM |  |  |
| UCACUCACGUUAGGAUAUGGAUCGGAAAACGAUCCAGAAGGAACCUGCAAACCUGAGGAUCACCCGGGUUCCAAUAACGAGUGA [SameSame 9 - Jieux - Same State NG 1] | 458 nM | 778 nM |  |  |
| GUAGCUAUCGGAGGAUAUUCAUACCGGAAACGGACAUGAGGAUCACCCAUGUGGCGAAAGCCAUGGGAGAAGGCCGAUAGCUAC [jl-sng2-3.01 #MUTATE_MAP] (puzzle (switch architecture): Same State NG 2) |  |  | 52.2 nM | 856 nM |
| GCUUGCGACGCAGGAUAUGGGUGCCUAAACACGAGGAUCACCCGUGUAAAGGAAGCGAAAAGCUCUCAGAAGGGCGUCGCAGGC [United States 7 - Jieux - Same State NG 2] | 17.2 nM | 19.2 nM |  |  |
| CUUACUUUGUAGAAGGGUGACAUGAGGAUCACCCAUGUGCGUCUCCUGAAAGACCAGGGUACGCCACAGGAUAUACAAAGUAAG [Tigeatdi] (puzzle (switch architecture): Inverted Same State NG 2) |  |  | 59.8 nM | 116 nM |
| AAUAGUGGCGUAGGAUAUCUGCGUACAUGAGGAUCACCCAUGUCUCCCAGCUGCUGAGCUGGGACAGAGAAGGGCGACCGCAUA [Digece] | 76.4 nM | 226 nM |  |  |
| GCGCGCGGUUGAGGAUAUUUGCGUGCGGAUCGCCCGCGCACAUGAGGAUCACCCAUGUACGAGUAGGAGAAGGUGGCCCGUGUG [Same StateNG2] | 178 nM | 236 nM |  |  |
| UGGGAAUGAACAUGAGGAUCACCCAUGUCCCGGAAACGGAAUGAGGAUAUCCAUAGCAAAGCUAUGGAGAAGGCAUGGGUCCCA [SaneState 20 - Jieux - Same State NG 2] | 475 nM | 756 nM |  |  |
| AGAGCUGCUCAGAAGGAGGAUCACCCUUUCGAAAGAAAUACGGAGGCUGAAAAGCCUCCGAAAUCUUAGGAUAUGAGCAGCUCA [#SharedSequence - IExNG2: 6] (puzzle (switch architecture): Inverted Exclusion NG 2) |  |  | 166 nM | 153 nM |
| AAUAAACAAUAAAAGACUGGAGCAAACUUCUGAGGAUCACCCAGAAGGCGUCACCUAAUAGGUGACGAGGAUAUGGAGCUCCAG [#SharedSequence IExNG# - 2] (puzzle (switch architecture): Inverted Exclusion NG 3) |  |  | 6.36 nM | 5.76 nM |
| UAAUUAUGGUGAGGAUAUGCACAGGAUCACCGUGUAGAAGGCAUCAGGUAGAAGGUGCAGAGGAUCACCCUGUAAGGAUAUAUC [pwkr2 ssNG1 DX.18] | 102 nM | 722 nM |  |  |
| AUGGUUGUCGUAGGAUAUGUAGGAUAUUCCUACAUGAGGAUCACCCAUGUUCGCAUGGAAGAAGGACAGAAGGACGAUGACCAA [salish99_SSNG2_008 #endbits investigation] (puzzle (switch architecture): Same State NG 2) |  |  | 9.65 nM | 840 nM |
| AAAUAAAUUCAAGGAUAUGACUCCGAAACGGAGUCAGAAGGUGAGGAUCACCCACCUAUGAUCAGACCUCAGGAAACUGAGGUC [#SharedSequence ExNG1 - 39] (puzzle (switch architecture): Exclusion NG 1) |  |  | 6.56 nM | 6.19 nM |
| GGCGACGGUGUAGGAUAUGUGGGUUUCAAAGGGAUAGAAGGAUAGUUGGGAAUUAGGACAAGCAAACAUGAGGAUCACCCAUGU [Same STate NG 1] | 34.8 nM | 44 nM |  |  |
| AAAUAAAUUGAAGGAUAUCAGGGUGCACCUCAGUAAAACUGAGGUGCACCCUGAGAAGGUCGAGGAUCACCCGAUCUAAAUAAA [#SharedSequence SLExNG1: 1-2] (puzzle (switch architecture): Small Loop Exclusion NG 1) |  |  | 12 nM | 8.76 nM |
| AUUAACGGAGCUACAUGAGGAUCACCCAUGUACGGGUGAUCCUAGGAUAUGCCCGCAACUGUGUCGCAGAAGGAGGGUUGCCCA [Soterixe] | 37.6 nM | 25.6 nM |  |  |
| GGCUAACGGGCUAACAUGAGGAUCACCCAUGUGGACUCAUGGUAGGAUAUGCUGUACUUUGUACAGCAGAAGGGCCGGUGAGCC [Mat - Same State NG 3 - JL Mod - D9] | 283 nM | 726 nM |  |  |
| GCAGCUAAUGCAGGAUAUCAGCACGUGUAGUGCUGAGAAGGGCACAUGAGGAUUCUGUCUGUGAUCAAUUAAUAUUAAUGCUGC [salish99#hingeEx3_55-58_006] (puzzle (switch architecture): Exclusion NG 1) |  |  | 11.5 nM | 30.4 nM |

| Sequence | apparent KD of MS2 coat protein ([1]; input ligand: FMN 200 uM) | apparent KD of MS2 coat protein ([1]; input ligand: none) | apparent KD of MS2 coat protein ([2]; input ligand: FMN 200 uM) | apparent KD of MS2 coat protein ([2]; input ligand: none) |
| --- | --- | --- | --- | --- |
| AAAUAAAAUAUAGGAUAUGGAAACAUGAGGAUCACCCAUGUAAAAUAAAAUAAAUAAUAAUAUAACCAGAAGGAUAAAAUAAAA [LRO001_SS NG 2] | 40.2 nM | 30.6 nM |  |  |
| UCCGCUAUCGCAGGAUAUUACAUGGGAAAGAGUACAUGAGGAUCACCCAUGUAAAAGAUCAUAAAUAAGAAGGGCGAUAGCGGA [Lame State 9 - Jieux - Same State NG 2] | 214 nM | 18.8 nM |  |  |
| GGAGACCACACAGGAUAUGCUGGACUUUGUCCAGCAGAAGGGUGUUUAACAUGAGGAUCACCCAUGUAGGUCUCCAAAUUUAAU [Denovo 59] | 17.7 nM | 60.5 nM |  |  |
| AAUAAUCAGGUAGGAUAUGCUCAGGAUAACUGAGCAGAAGGACUAGAAACCUGAGGAUCACCCAGGUAACUGGAAUAAUAAUAA [Same State NG1 - A3C, U17G Submission 6B] | 57.4 nM | 121 nM |  |  |
| UGGAUCAAUACAGGAUAUGGUGACGCACAUGAGGAUCACCCAUGUCCGCAGCGUGCUAAGCACGCCCAGAAGGGUAUUGACUUG [Enxe] | 106 nM | 858 nM |  |  |
| AUGGGUUAAGGAGGAUAUAGAGGGAGGAGUAAACAUGAGGAUCACCCAUGUAUUUAAUUAGUUUACUAGAAGGCUUGUGAUUGU [1.8082e+07] | 52.7 nM | 33.9 nM |  |  |
| GUCCCAGUCACAGGAUAUGGCUCCGUAACGGAACCAGAAGGGUGAUAUUCAGAAAACACACAUGAGGAUCACCCAUGUAAUAAA [Tiorbiti] | 164 nM | 469 nM |  |  |
| CGGAAUUGUACAGGAUAUGAGGGUGCCUGAGCCUCAGAAGGGUAGACCGACAUGAGGAUCACCCAUGUAUGCGGAUAACGUCCG [Sobela] | 1660 nM | 224 nM |  |  |
| CAGGCUGCCAGAGGAUAAUGGACAUGAGGAUCACCCAUGUGUCAGGAUAUGGGUUUCACAUGGACUCAGAAGGGACCAGCUCGA [Raraator] | 33.8 nM | 131 nM |  |  |
| AGACCUGCUCAGAAGGUGGGAACGAGGCUGGAAACAGCCUCGAAAUUAAAUCCUUGAGGAUCACCCAAGGAUAUGAGCAGGUCA [#SharedSequence - IExNG2: 12] (puzzle (switch architecture): Inverted Exclusion NG 2) |  |  | 84.3 nM | 10.3 nM |
| ACCAAUGGGUGAGGAUAUGCACAGGAUCACCGUGUAGAAGGCAUCAGGUAGAAGGUGCAGAGGAUCACCCUGUAAGGAUAUAUC [pwkr2 ssNG1 DX.14] | 885 nM | 563 nM |  |  |
| CACGUCCUCACAGGAUAUGCUGGACUUUGUCCAGCAGAAGGGUGACAUGAGGAUCACCCAUGUUAAAGGACGUGUAUAUUUAAU [Denovo 24] | 126 nM | 652 nM |  |  |
| UCAACAAGGUGAGGAUAUGCACAGGAUCACCGUGUAGAAGGCAUCAGGUAGAAGGUGCAGAGGAUCACCCUGUAAGGAUAUACA [pwkr2 ssNG1 DX.9] | 526 nM | 1320 nM |  |  |
| GGUCGACCUCAAGGAUAUGGACUGCAAAGCAGUCCAGAAGGUGAGGAUCACCCACCUACGGUCAGGAAACUGACCGAUCGACCA [#SharedSequence - ExNG1-2] (puzzle (switch architecture): Exclusion NG 1) |  |  | 117 nM | 19.8 nM |
| CUCCCUCCCUCCCUCCCUCCCUCCGAGGAUAUCCCAAACUCCCUCCCUCCCUCCCUCCCAAAUUCCCAGAAGGCCCUUUUUCCC [2nd design] (puzzle (switch architecture): Small Loop Same State NG 3) |  |  | 4.61 nM | 46.4 nM |
| CGUUGUUCCGCAGGAUAUGUAUUGGAUUACAAUACAGAAGGGCGAUAACAUGAGGAUCACCCAUGUGUGGACAAUGAGGAAGAG [SameState #38 NG1] | 54.9 nM | 789 nM |  |  |
| CACUCCCGGUGAGGAUAUGCACAGGAUCACCGUGUAGAAGGCAUCAGGUAGAAGGUGCAGAGGAUCACCCUGUAAGGAUAUAUC [pwkr2 ssNG1 DX.12] | 94.5 nM | 300 nM |  |  |
| AGUUACAAACUCAACAUGAGGAUCACCCAUGUACUCUCAUGUAAGGAUAUACAUUCGUAUAGAAAGUAGAAGGUACUAAUUAUG [JR_SSNG3_Sub90] | 485 nM | 659 nM |  |  |
